From patent US20240000938A1 (A2 BIOTHERAPEUTICS, published 2024)

B1: HA-1 Ftcr blocker (TCR, V domains shown)
V domain 1: KNEVEQSPQNLTAQEGEFITINCSYSVGISALHWLQQHPGGGIVSLFMLSSGKKKHGRLIATINIQEKHSSLHITASHPRDSAVYICAVRSVSGAGSYQLTFGKGTKLSVIP
V domain 2: DTGVSQNPRHKITKRGQNVTFRCDPISEHNRLYWYRQTLGQGPEFLTYFQNEAQLEKSRLLSDRFSAERPKGSFSTLEIQRTEQGDSAMYLCASSIDSFNEQFFGPGTRLTVLE

Experiments:
[1] = molecular target: HLA-A*02 / HA-1(H) peptide … on T2 cells (human); assay: cell-based or functional assay
[2] = molecular target: HLA-A*02 on cells (human); assay: cell-based or functional assay

Row | Binder | Emax shifted downward (KRAS TCR) [1] | Emax shifted downward (NY-ESO-1 TCR) [1] | additional right shift in activity of the NY-ESO-1 TCR [1] | block of KRAS TCR activity [1] | EC50 right shift of the NY-ESO-1 TCR [2]
1 | B1 | 2.7 fold | 1.5 fold | ~10 fold | ~5 fold | 
2 | VLHDDLLEA [HA-1(H) peptide VLHDDLLEA] |  |  |  |  | ~30 fold
